Measured values taken from patent US20180215829A1 (CRESCENDO BIOLOGICS, published 2018).
Where two headings read alike, the source gives them in different places.

Legend:
[1] = biological target: T1, recombinant human IL-17RA Fc fusion protein (R&D Systems 177-IR-100) (human, UniProt Q96F46 33-320); test: IL-17RA ligand inhibition ELISA (FIG. 10A): VH competes with IL-17A for coated IL-17RA-Fc
T1 construct: Bought protein; not shown: Fc domain of human IgG1
T1 sequence: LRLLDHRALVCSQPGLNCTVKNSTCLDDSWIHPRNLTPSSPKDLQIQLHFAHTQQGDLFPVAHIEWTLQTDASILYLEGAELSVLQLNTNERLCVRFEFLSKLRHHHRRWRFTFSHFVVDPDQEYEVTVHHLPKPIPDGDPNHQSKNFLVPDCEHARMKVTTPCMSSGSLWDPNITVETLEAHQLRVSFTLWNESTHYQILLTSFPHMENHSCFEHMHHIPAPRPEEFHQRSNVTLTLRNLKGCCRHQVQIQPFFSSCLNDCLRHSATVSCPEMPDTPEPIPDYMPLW
Description: (§1) VH, both purified and crude periplasmic extracts, were also tested for their ability to inhibit the interaction of IL-17A with recombinant IL-17RA-Fc. […] Following washing of excess coating antigen, as described above, the wells of the plate were incubated with 3% Marvel/PBS to block non-specific protein interactions. VH preparations, crude periplasmic extracts or purified VH, or suitable controls, were prepared with 1 nM recombinant IL-17A (Peprotech, cat# AF-200-17) in 3% skimmed milk powder/PBS solution in polypropylene plates or tubes. The mixture was then transferred to the assay plate and incubated for 1 hour at room temperature. Excess protein was removed by washing and bound IL-17A was detected by incubation with biotinylated anti-IL-17A Mab (R & D Systems, cat BAF317) followed by the addition of neutravidin-HRP (Pierce, cat#31030) and TMB substrate (Sigma, cat# T0440). The TMB reaction was stopped by addition of 0.5M H₂SO₄ and absorbances were measured at 450 nm in a plate reader.

[2] = biological target: T2, human IL-17RA on HT1080 cells (human, UniProt Q96F46 33-866); test: cell-based or functional assay
T2 sequence: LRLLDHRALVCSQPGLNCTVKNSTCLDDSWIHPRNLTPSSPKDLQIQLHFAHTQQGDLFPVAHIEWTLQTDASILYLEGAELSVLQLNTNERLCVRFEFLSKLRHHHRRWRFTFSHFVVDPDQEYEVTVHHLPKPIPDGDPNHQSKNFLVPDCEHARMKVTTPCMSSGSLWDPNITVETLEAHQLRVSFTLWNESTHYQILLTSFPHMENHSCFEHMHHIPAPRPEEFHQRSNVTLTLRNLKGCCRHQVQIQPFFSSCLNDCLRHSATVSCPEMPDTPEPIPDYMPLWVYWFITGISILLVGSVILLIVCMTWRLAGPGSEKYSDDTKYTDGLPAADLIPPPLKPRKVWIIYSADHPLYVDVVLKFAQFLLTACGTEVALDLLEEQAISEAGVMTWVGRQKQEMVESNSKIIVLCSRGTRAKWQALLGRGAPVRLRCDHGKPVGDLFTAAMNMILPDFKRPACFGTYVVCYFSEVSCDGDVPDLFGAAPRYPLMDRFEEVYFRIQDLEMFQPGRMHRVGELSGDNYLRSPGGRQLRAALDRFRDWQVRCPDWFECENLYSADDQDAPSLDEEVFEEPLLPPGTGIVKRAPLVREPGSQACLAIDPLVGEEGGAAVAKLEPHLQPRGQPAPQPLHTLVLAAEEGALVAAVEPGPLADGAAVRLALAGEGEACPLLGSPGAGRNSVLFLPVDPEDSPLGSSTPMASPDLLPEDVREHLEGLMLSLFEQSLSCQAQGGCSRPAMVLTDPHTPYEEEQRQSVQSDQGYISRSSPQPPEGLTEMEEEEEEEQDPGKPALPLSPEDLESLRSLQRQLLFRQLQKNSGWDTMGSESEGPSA

[3] = biological target: T1, recombinant human IL-17RA Fc fusion …; test: BIAcore T200 single-cycle kinetics, IL-17RA-Fc captured on protein G chip, VH as analyte
Description: Binding kinetics of anti-IL-17RA VH antibodies were measured on a BIAcore® T200 instrument. For IL-17RA, first a protein G chip was prepared by diluting protein G to 20 ug/ml in acetate buffer, pH 4 (BIAcore®, cat# BR-100-49) and then coupled 1200 RU to a CM5 Series S chip using amine coupling chemistry. This surface was then used to capture IL-17RA Fc fusion protein from solution: IL-17RA at 10 ug/ml in HBS injected for 10 seconds at 30 ul/min flow rate would capture approximately 100-150 RU of IL-17RA onto the protein G surface.
Binding kinetics of anti-IL-17RA VH antibodies were determined by single-cycle kinetics. VH antibodies were prepared in dilution series (typically 1:3 dilution series starting with 100 nM VH at the highest concentration), and then injected over the antigen coated surfaces and also a blank surface, starting with the lowest concentration of VH and then working progressively up to the highest concentration. VH binding kinetics were then determined from the (blank subtracted) sensorgram traces using 1:1 binding models and BIAevaluation software.

[4] = biological target: T1, recombinant human IL-17RA Fc fusion …; test: receptor/ligand biochemical inhibition ELISA: VH competes with 1 nM IL-17A for coated IL-17RA-Fc
Description: as §1

[5] = biological target: T2, human IL-17RA on HT1080 cells; test: cell-based or functional assay; remark: listed apart in the source
[6] = biological target: T2, human IL-17RA on HT1080 cells; test: cell-based or functional assay; remark: listed apart in the source

B1: VH clone 2.1 (VHH)
VHH: QVQLVQSGAEVKKPGASVKVSCKASGYPFTSYDINWVRQATGQSLEWMGWMNPNSGDTVYAQKFQGRVTMTRNTSISTAYMELSSLRSEDTAVYFCARGRRDDWKNNYWGQGTLVTVSS
notes: Human VH single domain antibody, no light chain; Parent clone of family 2; also called VH 2.1
- IC50 [1]: 4 nM
- Cell assay IC50 [2]: 280 nM
- Kd [3]: 7 nM
- koff [3]: 0.00263 s⁻¹
- kon [3]: 368000 M⁻¹ s⁻¹
- IC50 [4]: 3.7 nM
- IC50 (nM), cell-based assay [5]: 363 nM
- Cell assay IC50 [6]: 280 nM
